Measured values as given in article PMC13246001, “Membrane binding controls the ATPase cycle and localization of MinD in Bacillus subtilis” (eLife, 2026).

How the values were obtained:
[1] = molecular target: His-MinD (B. subtilis MinD, N-terminally His-tagged) (B. subtilis) (UniProt Q01464)
[2] = substrate: Nc1ncnc2c1ncn2[C@@H]1O[C@H](COP(=O)(O)OP(=O)(O)OP(=O)(O)O)[C@@H](O)[C@H]1O; assay: EnzChek phosphate release assay; assay type: biochemical, Bacillus subtilis; details: 10 µM MinD, E. coli total lipid liposomes 0.2 mg/ml, Mg2+, 37 °C, HEPES-KOH pH 7.2 protein/liposome buffer
[3] = molecular target: the molecule itself; assay: SEC; Superdex200 Increase 10/300 GL, 0.75 ml/min, buffer C (50 mM HEPES-KOH, 150 mM KCl, 10% glycerol, 0.1 mM EDTA, pH 7.2) with 0.4 mM TCEP and 0.2 mM Mg2+-ADP; column calibrated with a gel filtration standard

“His-PDZ (soluble C-terminal PDZ domain of B. subtilis MinJ with N-terminal His-tag) (from UniProt O34375 1-397) (domain or fragment)” showed a relative ATPase activity (EnzChek phosphate release) of 6 µM His-MinD in the presence of 1, 3 and 5 µM His-PDZ, 0.2 mg/ml liposomes, 2 mM Mg2+-ATP; His-MinD alone = 1; highest value at 3 µM (relative activity) [1] of 1.37.

B1: His-MinD (Bacillus subtilis subsp. subtilis str. 168) (protein)
chain: MGEAIVITSGKGGVGKTTTSANLGTALAILGKRVCLVDTDIGLRNLDVVMGLENRIIYDLVDVVEGRCKMHQALVKDKRFDDLLYLMPAAQTSDKTAVAPEQIKNMVQELKQEFDYVIIDCPAGIEQGYKNAVSGADKAIVVTTPEISAVRDADRIIGLLEQEENIEPPRLVVNRIRNHLMKNGDTMDIDEIVQHLSIDLLGIVADDDEVIKASNHGEPIAMDPKNRASIAYRNIARRILGESVPLQVLEEQNKGMMAKIKSFFGVRS
notes: full-length MinD, N-terminal His-tag kept (pET-28a NdeI/XhoI, plasmid NAP013), expressed in E. coli BL21(DE3)pLysS; monomer in ADP, dimerizes in ATPase cycle
B1 gave a Km [2] of 173 µM and a kcat [2] of 0.01008 s⁻¹.

B2: His-MinD-D40A (enzyme, B. subtilis, UniProt Q01464 1-268, looked up)
chain: MGEAIVITSGKGGVGKTTTSANLGTALAILGKRVCLVDTAIGLRNLDVVMGLENRIIYDLVDVVEGRCKMHQALVKDKRFDDLLYLMPAAQTSDKTAVAPEQIKNMVQELKQEFDYVIIDCPAGIEQGYKNAVSGADKAIVVTTPEISAVRDADRIIGLLEQEENIEPPRLVVNRIRNHLMKNGDTMDIDEIVQHLSIDLLGIVADDDEVIKASNHGEPIAMDPKNRASIAYRNIARRILGESVPLQVLEEQNKGMMAKIKSFFGVRS
notes: MinD of Bacillus subtilis 168 with D40A, made by site-directed mutagenesis of plasmid NAP013 (pET-28a-minD); Same construct as m1 but for the mutation; also called locked dimer; pET-28a-minD-D40A; source: E. coli BL21(DE3)/pLysS, purified (Ni-NTA, SEC) with Mg2+-ADP in the buffers; not shown: His-tag, N-terminal, kept
B2: binds [3].
